Test results published in paper PMC6704074, “Structural basis for lamin assembly at the molecular level” (Nature Communications, 2019).
Positions count from the first letter of the chain named. Numbers in names are those of the source. Where “and” joins values, the source holds several entries; their conditions need not be identical. Equal entries are not always repeated.

T1: His-tagged lamin 300 fragment, wild type (human lamin A/C residues 1–300) (human, UniProt P02545 1-300)
T1 construct: lamin A/C, human, residues 1-300; The plasmid also encodes a TEV site between the tag and the lamin residues (pProEx-HTa); also called His-lamin; His-tagged wild-type lamin 300 fragment; source: E. coli BL21 (DE3), purified (Ni-NTA, HiTrap Q, SEC; no TEV treatment); not shown: His tag, N-terminal, kept
T1 sequence (looked up): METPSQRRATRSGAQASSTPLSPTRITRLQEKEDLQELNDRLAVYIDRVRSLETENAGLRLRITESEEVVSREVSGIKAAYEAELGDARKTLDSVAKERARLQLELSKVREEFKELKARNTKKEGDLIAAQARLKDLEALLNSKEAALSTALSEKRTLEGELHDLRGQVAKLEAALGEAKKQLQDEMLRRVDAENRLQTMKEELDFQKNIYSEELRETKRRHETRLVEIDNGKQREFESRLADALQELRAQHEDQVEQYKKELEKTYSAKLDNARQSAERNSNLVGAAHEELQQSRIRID

T2: His-tagged lamin 300 fragment L59R mutant (human, UniProt P02545 1-300, L59R)
T2 construct: lamin A/C, human, residues 1-300, with the dilated cardiomyopathy mutation L59R; source: E. coli BL21 (DE3), purified (Ni-NTA, HiTrap Q, SEC; no TEV treatment)
T2 sequence (looked up): T1 sequence (looked up) with L59R

B1: selenomethionine-labelled lamin A/C fragment (residues 1–300), His tag cleaved (domain or fragment, human, UniProt P02545 1-300, looked up)
chain: T1 sequence (looked up)
modifications: selenomethionine-labelled
notes: lamin A/C, human, residues 1-300 (head, coil 1a, L1, coil 1b, L12, first half of coil 2); Four protomers (chains A-D) in the asymmetric unit: two parallel coiled-coil dimers (A:B, C:D) packed anti-parallel; also called lamin 300 fragment; N-terminal half fragment of human lamin A/C; source: E. coli B834 (DE3), M9 medium with L-(+)-selenomethionine, purified (Ni-NTA, TEV, HiTrap Q, SEC); not …
B2: lamin 286–400 R388C mutant (domain or fragment, human, UniProt P02545 286-400, looked up)
chain: GAAHEELQQSRIRIDSLSAQLSQLQKQLAAKEAKLRDLEDSLARERDTSRRLLAEKEREMAEMRARMQQQLDEYQELLDIKLALDMEIHAYRKLLEGEEERLCLSPSPTSQRSRG
notes: lamin A/C, human, residues 286-400; runs at 14 kDa on SDS-PAGE; Reduced with 2 mM DTT and desalted before cross-linking; also called coil 2 (286–400) R388C; coil 2 R388C; source: E. coli BL21 (DE3), purified
B3: lamin 250–400 fragment (F3), without His tag (domain or fragment, human, UniProt P02545 250-400, looked up)
chain: AQHEDQVEQYKKELEKTYSAKLDNARQSAERNSNLVGAAHEELQQSRIRIDSLSAQLSQLQKQLAAKEAKLRDLEDSLARERDTSRRLLAEKEREMAEMRARMQQQLDEYQELLDIKLALDMEIHAYRKLLEGEEERLRLSPSPTSQRSRG
notes: lamin A/C, human, residues 250-400 (coil 2, residues 240-385, without its N-terminal ten residues); not called His-tagged there, so by the common procedure the tag would be cleaved; also called coil 2 fragment; C-terminal part of coil 2; source: E. coli BL21 (DE3), purified (Ni-NTA, TEV, HiTrap Q, SEC)
B4: His-F3 (His-tagged lamin A/C residues 250–400) (domain or fragment, human, UniProt P02545 250-400, looked up)
chain: B3 chain
notes: lamin A/C, human, residues 250-400; The plasmid also encodes a TEV site between the tag and the lamin residues (pProEx-HTa); also called his-tagged 250–400 fragment; coil 2 fragment; source: E. coli BL21 (DE3), purified (Ni-NTA, HiTrap Q, SEC; no TEV treatment); not shown: His tag, N-terminal, kept
B5: lamin 300 fragment, wild type (human lamin A/C residues 1–300), His tag cleaved (domain or fragment, UniProt P02545 1-300, looked up)
chain: T1 sequence (looked up)
notes: lamin A/C, human, residues 1-300; Mostly a dimer by SEC-MALS; also called WT; lamin 1–300 fragment; source: E. coli BL21 (DE3), purified (Ni-NTA, TEV, HiTrap Q, SEC); not shown: His tag, N-terminal, cleaved
B6: lamin 300 fragment A146C mutant (human lamin A/C residues 1–300), His tag cleaved (domain or fragment, UniProt P02545 1-300, looked up)
chain: T1 sequence (looked up) with A146C
modifications: disulfide bond through Cys146 in the non-reduced protein
notes: lamin A/C, human, residues 1-300; Non-reduced: partly a disulfide-linked tetramer; with TCEP: dimer (A146C^R); also called lamin 300 A146C; A146C variant; source: E. coli BL21 (DE3), purified (Ni-NTA, TEV, HiTrap Q, SEC); not shown: His tag, N-terminal, cleaved

Legend:
[1] = biological target: the molecule itself; experiment: crystal structure; SeMet-labelled lamin 1-300, His tag cleaved, 7 mg/mL; 0.1 M Tris-HCl pH 8.5, 0.9 M LiCl, 7% PEG 8000, 14 °C; SAD, 3.2 Å
[2] = biological target: B5; experiment: cross-linking; sulfo-SMPB (0-250 μM) added to 20 μM lamin 300 and 286-400 R388C, 1 h, 20 mM HEPES pH 7.5, 50 mM NaCl, 1 mM EDTA; SDS-PAGE bands digested with chymotrypsin, MS/MS; conditions: both partners purified
[3] = biological target: the molecule itself; experiment: as above
[4] = biological target: B6; experiment: pull-down; lamin 300 A146C coupled to CNBr-activated Sepharose; fragments at 66 μM; 20 mM Tris-HCl pH 8.0, 150 mM NaCl, non-reducing; Tris-blocked resin as control; SDS-PAGE; conditions: both partners purified
[5] = biological target: T1, His-tagged lamin 300 fragment, wild …; experiment: pull-down; His-tagged lamin 300 (wild type, Y45C, L59R) on Ni-NTA resin; lamin 250-400 as prey; 20 mM Tris-HCl pH 8.0 with 50 or 150 mM NaCl; SDS-PAGE; conditions: both partners purified
[6] = biological target: T2, His-tagged lamin 300 fragment L59R …; experiment: ITC; His-lamin 300 (20 μM) in the cell, His-250-400 (160 μM) in the syringe; PBS, 25 °C, 19 injections of 2 μL; conditions: both partners purified
[7] = biological target: T1, His-tagged lamin 300 fragment, wild …; experiment: as above; conditions: both partners purified
[8] = biological target: B5; experiment: pull-down; His-F3 on Ni-NTA resin as bait; tag-cleaved lamin 300 proteins as prey; 20 mM Tris-HCl pH 8.0 with 150 or 50 mM NaCl, room temperature 30 min, wash with 20 mM imidazole; 2 mM TCEP for reduced A146C; SDS-PAGE; conditions: both partners purified
[9] = biological target: B6; experiment: as above; conditions: both partners purified
[10] = biological target: the molecule itself; experiment: SEC-MALS; 2.5 mg/ml, Superdex 200 Increase 5/150 GL, non-reducing buffer Tris-HCl pH 8.0, 150 mM NaCl

Binder: B1
- binding result [1]: binds

Binder: B2
- binding result [2]: binds
- binding result [3]: binds

Binder: B3
- binding result [4]: binds
- binding result [5]: binds

Binder: B4
- fold higher binding affinity than the wild type (from KD values) [6]: ~40 fold
- binding result [7]: binds
- binding result [8]: binds
- binding result [9]: binds

Binder: B5
- stoichiometry N [10]: 2

Binder: B6
- stoichiometry N [10]: 4 and 2
